Reference: patent US20030148958A1 (PROCTER AND GAMBLE, published 2003)

T1: CRF2R
T1 sequence (Q13324 whole entry, species assumed, looked up): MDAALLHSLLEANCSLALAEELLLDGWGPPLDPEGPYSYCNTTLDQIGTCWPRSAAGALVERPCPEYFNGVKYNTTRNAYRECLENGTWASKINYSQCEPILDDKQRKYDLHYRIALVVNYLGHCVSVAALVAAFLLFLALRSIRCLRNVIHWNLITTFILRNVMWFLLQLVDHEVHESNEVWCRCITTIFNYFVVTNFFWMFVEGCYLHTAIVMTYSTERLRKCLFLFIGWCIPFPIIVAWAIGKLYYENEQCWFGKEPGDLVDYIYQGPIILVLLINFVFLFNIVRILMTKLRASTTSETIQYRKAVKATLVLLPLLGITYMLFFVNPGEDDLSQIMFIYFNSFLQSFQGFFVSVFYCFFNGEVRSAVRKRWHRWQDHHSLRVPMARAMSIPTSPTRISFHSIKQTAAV


Key:
CRF1R = test: cell-based or functional assay
CRF2R = biological target: T1, CRF2R; test: cell-based or functional assay

Binder	CRF1R EC50 (CRF1R) [nM]	CRF1R Emax % (CRF1R) [%]	CRF2R EC50 (CRF2R) [nM]	CRF2R Emax % (CRF2R) [%]
ZGPPISIDLPYYLLRKMIEIEKQEKEKQQAANNALLLATI (C-terminal amide) [SEQ ID NO 225]	220	97	4.8	89
ZGPPISIDLPYYLLRKMIEIEKQEKEKQQAANNALLLDTI (C-terminal amide) [SEQ ID NO 226]	315	95	7.6	100
ZGPPISIDLPQYLLRKMIEIEKQEKEKQQAANNALLLATI (C-terminal amide) [SEQ ID NO 227]	918	18	33.6	95
ZGPPISIDLPFHLLRKMIEIEKQEKEKQQAANNALLLDTI (C-terminal amide) [SEQ ID NO 228]	276	100	7.1	100
ZGPPISIDLPFHLLRKMIEIEKQEKEKQQAANNALLLATI (C-terminal amide) [SEQ ID NO 229]	298	100	10.3	100
ZGPPISIDLPFYLLRKMIEIEKQEKEKQQAANNALLLDTI (C-terminal amide) [SEQ ID NO 230]	219	100	8.1	100
ZGPPISIDLPFYLLRKMIEIEKQEKEKQQAANNALLLATI (C-terminal amide) [SEQ ID NO 231]	94	100	5.9	100
ZGPPISIDLPTYLLRKMIEIEKQEKEKQQAANNALLLDTI (C-terminal amide) [SEQ ID NO 232]	1000	7	45.3	100
ZGPPISIDLPTYLLRKMIEIEKQEKEKQQAANNALLLATI (C-terminal amide) [SEQ ID NO 233]	1000	11	46.1	95
ZGPPISIDLPLELLRKMIEIEKQEKEKQQAANNALLLATI (C-terminal amide) [SEQ ID NO 234]	434	96	20.6	100
ZGPPISIDLPLELLRKMIEIEKQEKEKQQAANNALLLDTI (C-terminal amide) [SEQ ID NO 235]	806	70	25.7	100
ZGPPISIDLPIYLLRKMIEIEKQEKEKQQAANNALLLDTI (C-terminal amide) [SEQ ID NO 236]	1000	15	40.4	97
ZGPPISIDLPIYLLRKMIEIEKQEKEKQQAANNALLLATI (C-terminal amide) [SEQ ID NO 237]	1000	18	22.2	93
ZGPPISIDLPLHLLRKMIEIEKQEKEKQQATTNARLLDTV (C-terminal amide) [SEQ ID NO 238]	753	88	16.7	100
ZGPPISIDLPLHLLRKMIEIEKQEKEKQQATTNARLLDRV (C-terminal amide) [SEQ ID NO 239]	587	80	13.2	100
ZGPPISIDLPLHLLRKMIEIEKQEKEKQQAANNALLLDTI (C-terminal amide) [SEQ ID NO 240]	915	80	22	100

Binder	CRF1R EC50 (CRF1R) [nM]	CRF1R Emax % (CRF1R) [%]	CRF2R EC50 (CRF2R) [nM]	CRF2R Emax % (CRF2R) [%]
ZGPPISIDLPLHLLRKMIEIEKQEKEKQQAANNALLLATI (C-terminal amide) [SEQ ID NO 241]	308	99	12.6	99
ZGPPISIDLPLYLLRKMIEIEKQEKEKQQATTNARLLDTV (C-terminal amide) [SEQ ID NO 242]	358	99	29	94
ZGPPISIDLPLYLLRKMIEIEKQEKEKQQATTNARLLDRV (C-terminal amide) [SEQ ID NO 243]	440	96	16.8	100
ZGPPISIDLPLYLLRKMIEIEKQEKEKQQAANNALLLDTI (C-terminal amide) [SEQ ID NO 244]	300	100	8.8	98
ZGPPISIDLPLYLLRKMIEIEKQEKEKQQAANNALLLATI (C-terminal amide) [SEQ ID NO 245]	381	100	7.5	93
ZGPPISIDLPLQLLRKMIEIEKQEKEKQQATTNARLLDTV (C-terminal amide) [SEQ ID NO 246]	1000	33	38.8	100
ZGPPISIDLPLQLLEKMIEIEKQEKEKQQATTNARLLDRV (C-terminal amide) [SEQ ID NO 247]	1000	34	18.8	100
ZGPPISIDLPLQLLRKMIEIEKQEKEKQQAANNALLLDTI (not fully specified; C-terminal amide) [SEQ ID NO 248]	1000	32	19.6	98
ZGPPISIDLPLQLLEKMIEIEKQEKEKQQAANNALLLATI (not fully specified; C-terminal amide) [SEQ ID NO 249]	1000	50	12.2	92
ZGPPISIDLPFQLLRKMIEIEKQEKEKQQAANNRLLLATI (not fully specified; C-terminal amide) [SEQ ID NO 250]	138	99	19.7	100
ZGPPISIDLPFQLLRKMIEIEKQEKEKQQAANNALLLDTI (C-terminal amide) [SEQ ID NO 251]	926	80	11.8	100
ZGPPISIDLPTYLLRILIEIEKQEKEKQQAANNRLLLDTI (not fully specified; C-terminal amide) [SEQ ID NO 252]	226	100	22.3	100
ZGPPISIDVPTYLLRKMIEIEKQEKEKQQAANNRLLLDTI (C-terminal amide) [SEQ ID NO 253]	1000	42	41.8	86
ZGPPISIDVPIGLLRKMIEIEKQEKEKQQAANNRLLLDTI (not fully specified; C-terminal amide) [SEQ ID NO 254]	708	6	100	36
ZGPPISIDLPFQLLRILIEIEKQEKEKQQAANNRLLLDTI (not fully specified; C-terminal amide) [SEQ ID NO 255]	33.3	84	7	100
